Measurements as given in article PMC2789238.
Each block holds one substance with its values, some of them ahead of it.

How the values were obtained:
[1] = target: ERK1, not dual-phosphorylated (inactive ERK dimer in U0126-inhibited embryos) (L. pictus (endogenous in eggs and embryos)); test: native gel or EMSA; whole-cell extracts of eggs/embryos at times after fertilization (control, or U0126 15 min before fertilisation); non-denaturing gel to maintain ERK as a dimer; Western blot with anti-dual-phosphorylated ERK or anti-ERK antibodies
[2] = target: dual-phosphorylated ERK1 (fully activated ERK bis-phosphodimer) (L. pictus (endogenous in eggs and embryos)); test: as above
[3] = target: cdk2 (cyclin-associated kinase activity in sea urchin cell extracts) (L. pictus (endogenous in eggs and embryos))

stoichiometry N [1]: 2
Substance: ERK1, not dual-phosphorylated (inactive ERK dimer in U0126-inhibited embryos) (enzyme)

stoichiometry N [2]: 2
Substance: dual-phosphorylated ERK1 (fully activated ERK bis-phosphodimer) (enzyme)

inhibition of Rb C-terminus phosphorylation in the 4 min whole-cell extract with a mixture of Rb and MBP as substrates, with and without p27^kip1 [3]: 97%
Substance: p27^kip1 recombinant protein (from UniProt P46414 1-197) (natural protein)
